Each sequence was assayed on Escherichia coli TOP10 (assay: shrunken log2 fold change of peptide-encoding DNA abundance (4.5 h post-induction vs induction); higher = less antimicrobial activity (less host growth inhibition)). Settings: time post-induction: 4.5 h; library: site-saturation at positions 5, 18, 19, 20.
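Note: peptides expressed intracellularly from a pBAD plasmid library in pooled LB shake-flask culture, induced with 0.3% L-arabinose, DNA abundance read by NGS, three biological replicates, DESeq2 with apeglm shrinkage.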

Sequence | shrunken log2 fold change
RRIRRRPPRLPRPRPRPVMAPRP | 0.281
RRIRDRPPRLPRPRPRPMFRPRP | -0.114
RRIRERPPRLPRPRPRPMHNPRP | -0.437
RRIRCRPPRLPRPRPRPMNIPRP | -0.693
RRIRWRPPRLPRPRPRPRIHPRP | 0.178
RRIRFRPPRLPRPRPRPSDLPRP | -0.0388
RRIRCRPPRLPRPRPRPNVDPRP | -0.215
RRIRFRPPRLPRPRPRPPGHPRP | 0.337
RRIRLRPPRLPRPRPRPMGVPRP | -0.0231
RRIRRRPPRLPRPRPRPPFWPRP | 0.959
RRIRWRPPRLPRPRPRPVFQPRP | 0.183
RRIRRRPPRLPRPRPRPFCCPRP | 0.343
RRIRPRPPRLPRPRPRPESYPRP | -0.00116
RRIRKRPPRLPRPRPRPDPSPRP | -0.0338
RRIRGRPPRLPRPRPRPSCVPRP | 0.499
RRIRGRPPRLPRPRPRPHPYPRP | 0.0786
RRIRGRPPRLPRPRPRPVYGPRP | 0.0598
RRIRERPPRLPRPRPRPKSSPRP | -0.0505
RRIRQRPPRLPRPRPRPLVRPRP | 0.0989
RRIRDRPPRLPRPRPRPCGVPRP | 0.0765
RRIRTRPPRLPRPRPRPRVLPRP | 0.242
RRIRCRPPRLPRPRPRPVEEPRP | -0.0384
RRIRNRPPRLPRPRPRPAQDPRP | 0.288
RRIRMRPPRLPRPRPRPAWAPRP | 0.663
RRIRFRPPRLPRPRPRPGSCPRP | -0.0149

Sequence | shrunken log2 fold change
RRIRLRPPRLPRPRPRPVHDPRP | -0.458
RRIRCRPPRLPRPRPRPTEFPRP | -0.0561
RRIRERPPRLPRPRPRPSQTPRP | -0.067
RRIRHRPPRLPRPRPRPHDFPRP | -0.0633
RRIRTRPPRLPRPRPRPHERPRP | 0.594
RRIRCRPPRLPRPRPRPQEWPRP | 0.00898
RRIRQRPPRLPRPRPRPQEEPRP | -0.0176
RRIRDRPPRLPRPRPRPWSIPRP | -0.105
RRIRMRPPRLPRPRPRPMCSPRP | -0.00161
RRIRKRPPRLPRPRPRPQIYPRP | -0.159
RRIRNRPPRLPRPRPRPLFCPRP | -0.495
RRIRWRPPRLPRPRPRPSVEPRP | 0.172
RRIRCRPPRLPRPRPRPWNMPRP | -0.316
RRIRYRPPRLPRPRPRPVIFPRP | -0.331
RRIRCRPPRLPRPRPRPDTCPRP | -0.0965
RRIRWRPPRLPRPRPRPISFPRP | 0.00901
RRIRSRPPRLPRPRPRPPKWPRP | 0.329
RRIRARPPRLPRPRPRPITTPRP | 0.1
RRIRTRPPRLPRPRPRPSPDPRP | -0.331
RRIRNRPPRLPRPRPRPIFEPRP | 0.0552
RRIRPRPPRLPRPRPRPRPRPRP | 0.744
RRIRIRPPRLPRPRPRPVLCPRP | -0.0142
RRIRHRPPRLPRPRPRPSFIPRP | -0.619
RRIRYRPPRLPRPRPRPVMEPRP | -0.0459
RRIRPRPPRLPRPRPRPVLVPRP | 0.0376

Sequence | shrunken log2 fold change
RRIRPRPPRLPRPRPRPCCGPRP | -0.0386
RRIRPRPPRLPRPRPRPEDMPRP | -0.927
RRIRTRPPRLPRPRPRPLLYPRP | -0.444
RRIRRRPPRLPRPRPRPQHKPRP | 0.0372
RRIRCRPPRLPRPRPRPKCAPRP | 0.121
RRIRQRPPRLPRPRPRPMTEPRP | -0.0192
RRIRPRPPRLPRPRPRPFNWPRP | -0.118
RRIRWRPPRLPRPRPRPKRAPRP | 0.797
RRIRARPPRLPRPRPRPNKCPRP | -0.311
RRIRIRPPRLPRPRPRPNWQPRP | -0.0358
RRIRMRPPRLPRPRPRPFEWPRP | 0.174
RRIRTRPPRLPRPRPRPTAVPRP | -0.133
RRIRVRPPRLPRPRPRPKDRPRP | -0.0469
RRIRKRPPRLPRPRPRPECMPRP | 1.58
RRIRPRPPRLPRPRPRPCTKPRP | -0.244
RRIRKRPPRLPRPRPRPWICPRP | 0.044
RRIRVRPPRLPRPRPRPSAIPRP | -0.258
RRIRDRPPRLPRPRPRPFCDPRP | 0.167
RRIRARPPRLPRPRPRPKWYPRP | 0.056
RRIRVRPPRLPRPRPRPQWYPRP | -0.327
RRIRMRPPRLPRPRPRPNIDPRP | -0.764
RRIRQRPPRLPRPRPRPAYTPRP | 0.0569
RRIRFRPPRLPRPRPRPVHKPRP | -0.142
RRIRARPPRLPRPRPRPSCTPRP | 0.44
RRIRDRPPRLPRPRPRPRQVPRP | 0.262

Sequence | shrunken log2 fold change
RRIRFRPPRLPRPRPRPLIPPRP | -0.651
RRIRARPPRLPRPRPRPLFFPRP | 0.577
RRIRWRPPRLPRPRPRPSYMPRP | -0.502
RRIRARPPRLPRPRPRPTLDPRP | 0.777
RRIRSRPPRLPRPRPRPFADPRP | -0.0303
RRIRVRPPRLPRPRPRPGSFPRP | -0.122
RRIRQRPPRLPRPRPRPFNMPRP | 0.00759
RRIRWRPPRLPRPRPRPFLAPRP | -0.0712
RRIRVRPPRLPRPRPRPRVHPRP | 1.62
RRIRGRPPRLPRPRPRPYSTPRP | 0.037
RRIRFRPPRLPRPRPRPPCCPRP | 0.0896
RRIRIRPPRLPRPRPRPLHEPRP | -0.191
RRIRMRPPRLPRPRPRPVPCPRP | 0.291
RRIRDRPPRLPRPRPRPNIGPRP | -0.0132
RRIRQRPPRLPRPRPRPWDDPRP | -0.00146
RRIRERPPRLPRPRPRPRGVPRP | 0.309
RRIRIRPPRLPRPRPRPNCKPRP | -0.658
RRIRWRPPRLPRPRPRPWDQPRP | 0.00408
RRIRMRPPRLPRPRPRPHVEPRP | 0.00707
RRIRLRPPRLPRPRPRPHPYPRP | -0.379
RRIRDRPPRLPRPRPRPVEAPRP | 0.441
RRIRQRPPRLPRPRPRPPSEPRP | -0.0213
RRIRERPPRLPRPRPRPYVTPRP | -0.447
RRIRCRPPRLPRPRPRPCPVPRP | -0.28
RRIRMRPPRLPRPRPRPEYKPRP | 0.359

Sequence | shrunken log2 fold change
RRIRLRPPRLPRPRPRPADAPRP | 0.599
RRIRKRPPRLPRPRPRPEADPRP | 0.00157
RRIRPRPPRLPRPRPRPKCYPRP | -0.193
RRIRRRPPRLPRPRPRPMENPRP | 0.113
RRIRSRPPRLPRPRPRPREIPRP | 0.426
RRIRIRPPRLPRPRPRPWNVPRP | -0.00149
RRIRHRPPRLPRPRPRPLLEPRP | 0.0851
RRIRVRPPRLPRPRPRPHHGPRP | -0.348
RRIRIRPPRLPRPRPRPCCKPRP | -0.398
RRIRFRPPRLPRPRPRPVYAPRP | -0.444
RRIRNRPPRLPRPRPRPRYKPRP | -0.566
RRIRGRPPRLPRPRPRPCQYPRP | 0.0685
RRIRPRPPRLPRPRPRPNDGPRP | -0.482
RRIRYRPPRLPRPRPRPQAKPRP | -0.0419
RRIRHRPPRLPRPRPRPGLSPRP | -0.0763
RRIRQRPPRLPRPRPRPRPNPRP | 0.183
RRIRVRPPRLPRPRPRPVMQPRP | -0.0429
RRIRPRPPRLPRPRPRPFMFPRP | -0.361
RRIRRRPPRLPRPRPRPTGPPRP | 0.369
RRIRYRPPRLPRPRPRPFTKPRP | -0.184
RRIRIRPPRLPRPRPRPETHPRP | -0.413
RRIRDRPPRLPRPRPRPQCPPRP | -0.00693
RRIRQRPPRLPRPRPRPICGPRP | -0.0167
RRIRQRPPRLPRPRPRPLWMPRP | -0.165
RRIRMRPPRLPRPRPRPHNEPRP | -0.356

Sequence | shrunken log2 fold change
RRIRLRPPRLPRPRPRPNLIPRP | -0.117
RRIRFRPPRLPRPRPRPQPPPRP | 0.94
RRIRIRPPRLPRPRPRPVTWPRP | -0.372
RRIRCRPPRLPRPRPRPANMPRP | -0.277
RRIRIRPPRLPRPRPRPTHYPRP | -0.392
RRIRFRPPRLPRPRPRPREDPRP | 0.0505
RRIRRRPPRLPRPRPRPASAPRP | 0.227
RRIRNRPPRLPRPRPRPEFRPRP | -0.107
RRIRGRPPRLPRPRPRPLTEPRP | 1.22
RRIRKRPPRLPRPRPRPSFTPRP | -0.272
RRIRERPPRLPRPRPRPHYPPRP | -0.649
RRIRERPPRLPRPRPRPLVAPRP | 0.0966
RRIRERPPRLPRPRPRPCIPPRP | -0.109
RRIRGRPPRLPRPRPRPISLPRP | -0.228
RRIRVRPPRLPRPRPRPWWWPRP | 0.0767
RRIRSRPPRLPRPRPRPWGFPRP | -0.0589
RRIRCRPPRLPRPRPRPASYPRP | -0.295
RRIRDRPPRLPRPRPRPCNFPRP | -0.0419
RRIRNRPPRLPRPRPRPQPCPRP | 0.0582
RRIRCRPPRLPRPRPRPTKWPRP | -0.121
RRIRFRPPRLPRPRPRPIQRPRP | -0.107
RRIRDRPPRLPRPRPRPWFDPRP | -0.15
RRIRPRPPRLPRPRPRPIIPPRP | -0.339
RRIRSRPPRLPRPRPRPQFWPRP | 0.268
RRIRKRPPRLPRPRPRPCCSPRP | -0.189
